Target: Human IL-21 receptor on Baf3/KZ134/huIL-21R cells (human) (UniProt Q9HBE5)
Experiment: cell-based or functional assay

Sequence of Human IL-21 receptor on Baf3/KZ134/huIL-21R cells (human) (Q9HBE5 20-538): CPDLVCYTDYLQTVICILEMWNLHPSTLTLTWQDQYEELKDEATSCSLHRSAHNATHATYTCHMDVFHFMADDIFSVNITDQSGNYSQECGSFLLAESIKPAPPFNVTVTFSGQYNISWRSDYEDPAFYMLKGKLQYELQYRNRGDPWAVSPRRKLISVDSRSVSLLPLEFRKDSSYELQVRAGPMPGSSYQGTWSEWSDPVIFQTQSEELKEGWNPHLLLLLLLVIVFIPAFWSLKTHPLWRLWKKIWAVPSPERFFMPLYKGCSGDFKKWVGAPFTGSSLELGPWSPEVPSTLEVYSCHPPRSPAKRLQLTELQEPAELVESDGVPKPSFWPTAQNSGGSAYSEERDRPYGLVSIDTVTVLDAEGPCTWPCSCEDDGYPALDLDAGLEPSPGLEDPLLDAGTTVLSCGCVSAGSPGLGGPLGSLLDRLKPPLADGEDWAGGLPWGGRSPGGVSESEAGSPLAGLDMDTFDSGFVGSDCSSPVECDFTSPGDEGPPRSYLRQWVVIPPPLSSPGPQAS

EC90 in STAT-Luciferase assay: 1.08 nM
Substance: Recombinant rat IL-21 (from UniProt A3QPB9 18-146) (ligand)

From patent US20120225065A1
